This data set is described as follows: self-splicing fitness, log relative to wild type (ln ratio); higher = more splicing; Tetrahymena group I intron in knt gene, E. coli kanamycin selection, DiMSum; sequences stand for … in CUCUCU…GGAGGGAAAAGUUAUCAGGCAUGCACCUGGUAGCUAGUCUUUAAACCAAUAGAUUGCAUCGGUUUAAAAGGCAAGACCGUCAAAUUGCGGGAAAGGGGUCAACAGCCGUUCAGUACCAAGUCUCAGGGGAAACUUUGAGAUGGCCUUGCAAAGGGUAUGGUAAUAAGCUGACGGACAUGGUCCUAACCACGCAGCCAAGUCCUAAGUCAACAGAUCUUCUGUUGAUAUGGAUGCAGUUCACAGACUAAAUGUCGGUCGGGGAAGAUGUAUUCUUCUCAUAAGAUAUAGUCGGACCUCUCCUUAAUGGGAGCUAGCGGAUGAAGUGAUGCAACACUGGAGCCGCUGGGAACUAAUUUGUAUGCGAAAGUAUAUUGAUUAGUUUUGGAGUACUCGUGGUCG
An outline of the steps: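 The eight P1ex-region nucleotides of an intron in the knt kanamycin-resistance gene on pET-22b(+) were all randomised and the library put into E. coli BL21(DE3). Six replicate transformations were grown overnight at 37°C or 30°C on LB agar with or without 25 μg/mL kanamycin, together with 100 μg/mL carbenicillin, 50 μM IPTG and 0.2% rhamnose. Colonies were pooled and amplicon-sequenced on an Illumina HiSeq 2500. Fitness from DiMSum is the error-weighted combination of wild-type-normalised replicate fold changes, kanamycin over none.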

± gives the uncertainty stated by the source.

As for ACCUAGCAAUAUUACGUUUG, the “self-splicing fitness (ln)” value runs as follows: (30 °C) -2.6 ± 0.08; (37 °C) -2.03 ± 0.11.

For the sequence ACCGAGCAAUAUUACGCAAG, the “self-splicing fitness (ln)” value reads like this: (30 °C) -3.36 ± 0.17; (37 °C) -2.35 ± 0.18.

UAGUAGCAAUAUUACGUGUC: where the note is “37 °C”, the “self-splicing fitness (ln)” value is -2.22 ± 0.34.

Consider AAAAAGCAAUAUUACGUGGA, for which the “self-splicing fitness (ln)” value reads like this: (30 °C) -2.42 ± 0.1; (37 °C) -1.86 ± 0.1.

Take UUAAAGCAAUAUUACGAUCU: the “self-splicing fitness (ln)” value (30 °C) is -0.857 ± 0.065 and the “self-splicing fitness (ln)” value (37 °C) was -0.22 ± 0.088.

In the case of GAGAAGCAAUAUUACGUCAA, the “self-splicing fitness (ln)” value reads like this: (30 °C) -1.82 ± 0.11; (37 °C) -0.98 ± 0.11.

Consider CGGCAGCAAUAUUACGUUGA, for which the “self-splicing fitness (ln)” value by setting is: (30 °C) -2.63 ± 0.19; (37 °C) -1.8 ± 0.16.

As to CUUUAGCAAUAUUACGUGUC, the “self-splicing fitness (ln)” value (30 °C) was -2.98 ± 0.21 and the “self-splicing fitness (ln)” value (37 °C) is -1.55 ± 0.17.

As to AAUAAGCAAUAUUACGACCC, the “self-splicing fitness (ln)” value by setting is: (30 °C) -0.924 ± 0.12; (37 °C) 0.479 ± 0.17.

Regarding UACCAGCAAUAUUACGUCAG, the “self-splicing fitness (ln)” value runs as follows: (30 °C) -0.702 ± 0.095; (37 °C) -1.16 ± 0.11.

As to GCGCAGCAAUAUUACGUUCA, the “self-splicing fitness (ln)” value reads like this: (30 °C) -0.782 ± 0.098; (37 °C) 0.151 ± 0.1.

On to GCUCAGCAAUAUUACGUGUA, for which the “self-splicing fitness (ln)” value runs as follows: (30 °C) -0.241 ± 0.058; (37 °C) -0.00875 ± 0.067.

In the case of GUUAAGCAAUAUUACGGGAG, the “self-splicing fitness (ln)” value was -3.17 ± 0.14 (30 °C) and -1.63 ± 0.097 (37 °C).

In the case of CGAGAGCAAUAUUACGGAGU, the “self-splicing fitness (ln)” value by setting is: (30 °C) -4.55 ± 0.42; (37 °C) -1.6 ± 0.2.

Consider UAGAAGCAAUAUUACGUUUA, for which the “self-splicing fitness (ln)” value runs as follows: (30 °C) -1.21 ± 0.11; (37 °C) -0.575 ± 0.098.

Turning to GAACAGCAAUAUUACGUGAA, the “self-splicing fitness (ln)” value runs as follows: (30 °C) -0.968 ± 0.061; (37 °C) -0.396 ± 0.069.

For ACUAAGCAAUAUUACGUAGG, the “self-splicing fitness (ln)” value was -1.4 ± 0.074 (30 °C) and -0.98 ± 0.1 (37 °C).

Consider GUCAAGCAAUAUUACGGGUU, for which the “self-splicing fitness (ln)” value (30 °C) was -3.26 ± 0.11 and the “self-splicing fitness (ln)” value (37 °C) is -2.31 ± 0.12.

UCCCAGCAAUAUUACGCUAA: the “self-splicing fitness (ln)” value runs as follows: (30 °C) -1.75 ± 0.11; (37 °C) -0.958 ± 0.091.

On to AGUGAGCAAUAUUACGCGCG, for which the “self-splicing fitness (ln)” value by setting is: (30 °C) -1.28 ± 0.16; (37 °C) -1.83 ± 0.22.

Turning to UGGCAGCAAUAUUACGGCAG, the “self-splicing fitness (ln)” value is -0.148 ± 0.12 (30 °C) and 0.163 ± 0.14 (37 °C).

For GCUAAGCAAUAUUACGAUAA, the “self-splicing fitness (ln)” value is, setting by setting: (30 °C) -1.88 ± 0.17; (37 °C) -1.1 ± 0.17.

On to CGUCAGCAAUAUUACGCACC, for which the “self-splicing fitness (ln)” value reads like this: (30 °C) -1.51 ± 0.1; (37 °C) -0.192 ± 0.13.

On to GCAGAGCAAUAUUACGUACG, for which the “self-splicing fitness (ln)” value is -2.22 ± 0.45 (30 °C) and -1.77 ± 0.35 (37 °C).

On to GGCUAGCAAUAUUACGCAAC, for which the “self-splicing fitness (ln)” value is -1.61 ± 0.11 (30 °C) and -0.72 ± 0.12 (37 °C).

Regarding AACAAGCAAUAUUACGAUGC, the “self-splicing fitness (ln)” value (30 °C) is -2.67 ± 0.14 and the “self-splicing fitness (ln)” value (37 °C) is -0.922 ± 0.11.

Turning to UUUAAGCAAUAUUACGUUUU, the “self-splicing fitness (ln)” value is, setting by setting: (30 °C) -3.93 ± 0.2; (37 °C) -1.22 ± 0.16.

Regarding CCGUAGCAAUAUUACGGAUG, the “self-splicing fitness (ln)” value is -3.56 ± 0.3 (30 °C) and -2.11 ± 0.23 (37 °C).

As for ACAAAGCAAUAUUACGCAAA, the “self-splicing fitness (ln)” value is -2.72 ± 0.14 (30 °C) and -1.6 ± 0.12 (37 °C).

In the case of CUUAAGCAAUAUUACGUUUG, the “self-splicing fitness (ln)” value by setting is: (30 °C) -3.89 ± 0.2; (37 °C) -2.73 ± 0.3.

As to UUGUAGCAAUAUUACGGAGA, the “self-splicing fitness (ln)” value (37 °C) is -2.21 ± 0.42.

Regarding CAUAAGCAAUAUUACGGGGC, the “self-splicing fitness (ln)” value is -3.25 ± 0.26 (30 °C) and -1.22 ± 0.16 (37 °C).

With AAUUAGCAAUAUUACGGGGU, the “self-splicing fitness (ln)” value reads like this: (30 °C) -2.06 ± 0.2; (37 °C) -2.02 ± 0.32.

Consider CGAGAGCAAUAUUACGUGAU, for which the “self-splicing fitness (ln)” value reads like this: (30 °C) -4.24 ± 0.24; (37 °C) -2.58 ± 0.2.

In the case of UAGGAGCAAUAUUACGGAGG, the “self-splicing fitness (ln)” value is, setting by setting: (30 °C) -4.35 ± 0.42; (37 °C) -2.73 ± 0.32.

Consider CUUAAGCAAUAUUACGAAAA, for which, where the note is “30 °C”, the “self-splicing fitness (ln)” value is -1.9 ± 0.26.

In the case of AACAAGCAAUAUUACGUUUU, the “self-splicing fitness (ln)” value is, setting by setting: (30 °C) -3.22 ± 0.08; (37 °C) -1.03 ± 0.067.

As to GGCUAGCAAUAUUACGGUCU, the “self-splicing fitness (ln)” value by setting is: (30 °C) -2.92 ± 0.44; (37 °C) -0.649 ± 0.21.

Source of the values: the supplement of paper PMC7877785.
